Assay results from the DeepSol protein solubility set.

Assay: soluble on expression in E. coli; label from the status in PepcDB or PDB records

Question: For “MAPLETIYDESLNKSADSIDDKKWSKLFPRIVSDPDRSSNFMTRAIYVAFSAVLRNRNILGQEYFTKNYITEKLKCMTLCFRNPRSNQIAQLLRNAGDATKDGFLKEVSLVITNNEGDLEAIEVFSMKFIYFENGGVVARLSTDKNGQEDPHFAKLAQLVYEGGDSVRDQMVTIVRSVQFLCTKVLEPLPEEFTANFRLEYTNDAPSNFRIDGFEDSSTFYTLPDDIQSATIGHLRPGCHAANMECWSMLMSDSYEAELTLKRHLDKVSDRHGFNPVNVLYKSFNSEDSDTSLSQATTESVNDQGGNETSPVDDITESLEKAQMSPIQTRPTTRRGADGSKTRSSPYSRSCK”, which “soluble on expression in E. coli” value is on record?
Answer: not soluble

Question: For “MAPPTPHLAVRGSDGTLLLHGPPNCQESSAFQRDDRQGRYMTFSNDGTLFAWCNGSQVTVLKVPSGDLVKSFDLPKTTALEFSPLNKVLATWQQYTKTQDNPQGEANLQLWDLQTGACMKAFYQKKMTGWCPSWADDESISVRNVNNELHFFENNNFETIANKLHLQKVSEFALSPGSQPSKVAVYVPGSKGAPSFVRLYQYPNFGGPTCALANKSFFKADKVNMLWNKKATAVLVTASTEVDKTGASYYGEQTLHYVATNGESAVVQLPKNGPIYDVSWSPNSTEFCVVYGFMPAKATVFNNKCESVFDFGTGPRNAAFYSPQGHILVLAGFGNLRGQMEVWDVKKYKQVSKPQAEDTTHFSWCPDGEHIVTATCSPRLRASNGYKIWHYTGTVLYKHETPSGKELWEVLWQPFPAGVFPERAVKYQALPSELGSTEAKPAQAYRPPALRNKPQTASSKLHEEEPPQNMKPGAAGEKQPSKAALKNQKRREAKKAAKQENKPDEAPPPAADPAPVSHVTSSCGDPETDKKIKNLKKKLKAIDELKEQQAAGKVMQKNQLEKMQKEAQLLKELEDLELGL”, which “soluble on expression in E. coli” value is on record?
Answer: soluble

Question: Which “soluble on expression in E. coli” value does the source give for “MAPSRRERERERRREQIIRAAEKAFFARGYDRVTMDEIAEEAEVNKALLYYYFKNKESLFFAVNLYGVRILHSMYRRCLELDTDGYGKVRAMVEALYSFSKEHPDYFRIYCYSGTERFELSESEDAREIVDLRTGMWRLMVEAIMEGMNDGSIRSDLDPVELSIYIHTLAINALNLDFTSRMVLEARNISRDRFWEDLEVFLESALRP” here?
Answer: not soluble

Question: For “MAPTVERKNINLAPLKAAGVPIFFIVGGPGSGKGTQCDKIVAKYGLTHLSSGDLLRDEVKSGSPRGAQLTAIMESGALVPLEVVLDLVKEAMLKAIEKGSKGFLIDGYPREVAQGQQFESEIQEAKLVLFFDVAEETLVKRLLHRAQTSGRADDNADTIKKRLHTFVTSTAPVVDYYESKGKLVRINAEGSVDDIFAVVVANLDKATSKL”, which “soluble on expression in E. coli” value is on record?
Answer: soluble

Question: For “MAQERPSCAVEPEHVQRLLLSSREAKKSAYCPYSRFPVGAALLTGDGRIFSGCNIENACYPLGVCAERTAIQKAISEGYKDFRAIAISSDLQEEFISPCGACRQVMREFGTDWAVYMTKPDGTFVVRTVQELLPASFGPEDLQKIQ”, which “soluble on expression in E. coli” value is on record?
Answer: soluble

Question: For “MAQFESGVKYVPYSQEQVFNKLSDLSNLESVRDKLADKVQGMEFDSDSLSFTVQGISITLRIIEREPYKCVKFESEKSPVPMNLWIQILPVEAGQAKLKVTIRAEVNMFMKAMVAKPLQDGVDKLAEMLSMIPYLEHHHHHH”, which “soluble on expression in E. coli” value is on record?
Answer: soluble

Question: With “MAQGTVEARHGALDEAALGIGRWRWDLRSQELVWSEEERAIFGLAPGAPVPGFAAFSAMIHPDDRARVVAAVSETLAQRRLRHSIGFRILRPDGTMRQILSHGRLVMGLDGKPISLEGVDLDLT” as the sequence, how does the “soluble on expression in E. coli” value read?
Answer: not soluble

Question: Which “soluble on expression in E. coli” value does the source give for “MAQINFEGLRELHDCVNYLLHHCPKTRESLSQQGQEKWTEQVSEASLRMLDICNVSKDVMTLVKHSLQDLQLTLRGNESSDVNEKIAAYNRYKNKLKKETLKCLNCLKNMKGNEGRVAMPIEQNLLFVTEVLKEVRRVVVTMVESLFSLGCIPWLEKRSSKGSLSSIFSIRSSYLLDDEWDETAVQSATTRLEAAEITVVELEIELESIFRRLIQTRVSLLNILTN” here?
Answer: soluble

Question: Which “soluble on expression in E. coli” value does the source give for “MAQKILVEQVVKRKAIVVQPKDTVDRVAKILSRNKAGSAVVMEGDEILGVVTERDILDKVVAKGKNPKEVKVEEIMTKNPVKIEYDYDIEDVIELMTEKGVRRVLVTKFGKPIGFVTAADILAALASHNHEEEEEEREEESEVYGICEVCGQYGALYKVYHEGRELWVCETCKDLIEGR” here?
Answer: soluble

Question: Which “soluble on expression in E. coli” value does the source give for “MAQNNENALPDITKSITLEAPIQKVWETVSTSEGIAKWFMPNDFQLKEGQEFHLQSPFGPSPCKVLAVQAPTELSFEWDTEGWVVTFQLEDLGEKTGFTLIHSGWKEPNEVIGKANEKSSVVRGKMDGGWTGIVNERLRKAVEELEHHHHHH” here?
Answer: soluble

Question: Which “soluble on expression in E. coli” value does the source give for “MAQPIVVAALYKFVTLEDYVNLREPLLQAMLDNGIKGTLLIAEEGINGTVSGSREGIDGLLAWLKNDPRMVDIDHKESYCDEQPFYRTKVKLKKEIVTLGVPGVDPNKKVGTYVEPQDWNALISDPEVLLIDTRNDYEVSIGTFEGAIDPKTTSFREFPDYIKAHFDPSKHKKVAMFCTGGIRCEKASSYMLSEGFDEVFHLKGGILKYLEEVPQQESKWQGDCFVFDNRVTVRHDLSEGDYDQCHACRTPVSVEDRASEHYVPGISCPHCWDKLSEKTRRSAIDRQKQIELAKARNMPHPIGYNYKQSSSEALEHHHHHH” here?
Answer: not soluble

Question: For “MAQSPFRRMTTPGGYQMSVAMTNCGERGWITDHTGYRYDPVDPRTGVPWPAMPPAFRDLARRAAEQGGFTGFAPDACLVNRYEPGTRLSLHQDKDELDYAAPIVSVSLGLPATFLFGGMARSDKPRRFRLVHGDVVVWGGASRLAYHGVAPLADGEHALLGRQRINLTFRKVLLEHHHHHH”, which “soluble on expression in E. coli” value is on record?
Answer: soluble

Question: With “MAQTVPYGIPLIKADKVQAQGFKGANVKVAVLDTGIQASHPDLNVVGGASFVAGEAYNTDGNGHGTHVAGTVAALDNTTGVLGVAPSVSLYAVKVLNSSGSGSYSGIVSGIEWATTNGMDVINMSLGGASGSTAMKQAVDNAYARGVVVVAAAGNSGNSGSTNTIGYPAKYDSVIAVGAVDSNSNRASFSSVGAELEVMAPGAGVYSTYPTNTYATLNGTSMASPHVAGAAALILSKHPNLSASQVRNRLSSTATYLGSSFYYGKGLINVEAAAQ” as the sequence, how does the “soluble on expression in E. coli” value read?
Answer: soluble

Question: Which “soluble on expression in E. coli” value does the source give for “MARAIWKGAISFGLVHIPVALVSATTSNSVDFDWLDKRSMDPVGYKRINKVTGKEVTKENIVKGVLHEKDRYVVLSEEEIRSAHPKSTQTIDIFAFVDSQQIPLQNIDTPYFLTPDKRGEKVYALLRETLVDTQKVALANVVLHTREHLAAVMPLESALVMVILRWPADVRELDALELTEAVTDARLTKSERDMARRLVKDMSADWQPDQYHDTFQEKIMQLVQTKAGEGKIEDVETDPGEEERKSADVIDLTDLLRRSLAGKSSASKTRKPAAKDKVADKQSPKPKRPAVRKKTGKAS” here?
Answer: not soluble

Question: For “MARDGAVYACQSCGAVQTKWSGQCSACQSWNTLVEEVSAKPPGALSATKATRVRGLQFTGLESETAPPPRILTGVDEFDRVCGGGVVPGSALLIGGDPGVGKSTLLLQVCASAAARGVSCAYISGEEAVEQIRGRADRMGLAKANVSLAAETALRDILDGLKRDNFDLVVIDSIQTMWSDAHEAGPGTVTQVRACATELVRLAKKKGVAILLVGHVTKDGQIAGPRVVEHLVDAVLSFEGERGYPFRILRGAKNRFGATDEIGVFEMGDVGLREVKNPSALFLNEGGERAAGAAVFAGIEGSRPVLVEFQALVAPSAYGTPRRAVVGWDSGRLAMVLAVLEARCGLGFGDKDVYLNVAGGLRITEPAADLAAAAALASSALDVALPQDCVVFGELSLSGEVRPVSRMETRLKEAAKLGFGRALGPLAGLPEGGGALPVAGVARLTDAVRRIGDEIWTSLTLEHHHHHH”, which “soluble on expression in E. coli” value is on record?
Answer: not soluble

Question: Which “soluble on expression in E. coli” value does the source give for “MAREELRRHLVGLIERSRVVIFSKSYCPHSTRVKELFSSLGVECNVLELDQVDDGARVQEVLSEITNQKTVPNIFVNKVHVGGCDQTFQAYQSGLLQKLLQEDLAYDAENLYFQ” here?
Answer: soluble

Question: With “MARGLNRVFLIGALATRPDMRYTPAGLAILDLTLAGQDLLLSDNGGEREVSWYHRVRLLGRQAEMWGDLLDQGQLVFVEGRLEYRQWEREGERRSELQIRADFLDPLDDRGKERAEDSRGQPRLRAALNQVFLMGNLTRDPELRYTPQGTAVARLGLAVNERRQGAEERTHFVEVQAWRDLAEWAAELRKGDGLFVIGRLVNDSWTSSSGERRFQTRVEALRLERPTRGPAQAGGSRSREVQTGGVDIDEGLEDFPPEEELPF” as the sequence, how does the “soluble on expression in E. coli” value read?
Answer: soluble

Question: For “MARKAESSNRLDDAARAGWLYYVAGRTQDEIASVMGISRQSAQRLVSLAMAERLIKVRLDHPIAACLEMAARLKEKYDLKHVDVVPSDPGSDSTTVGIAEAGAAEIERWLKSAEPVVLAIGTGRTLKATIDQLPSMECPQHRIVSLTGNIRLDGSAAYYNVIFSMADTIKARHFPMPLPVLVSSPEEREVLHKQSLVQIALELGAEADAAFVGVGELGPDAPLCEDGFLARDEMARLMAAGAAGEICGWMFDHEGVLLPDSINERVASVPLPPRDRASVIGIAKGRRKHEALRAALKGRIINGLVTDEATADYLLRV”, which “soluble on expression in E. coli” value is on record?
Answer: not soluble

Question: With “MARKALIEKAKRTPKFKVRAYTRCVRCGRARSVYRFFGLCRICLRELAHKGQLPGVRKASW” as the sequence, how does the “soluble on expression in E. coli” value read?
Answer: soluble

Question: For “MARKLFTSESVTEGHPDKICDQISDAVLDAIFSQDPMARVACETAVTTGLVLVTGEITTNCYVDIPKIVRSTIREIGYDRAKYGFDCDTCAVLTSIDEQSPDIAMGVNKALEAKTGEMSDEEIEAIGAGDQGMMFGFACDETPELMPMPISLAHKLAMRLSQVRKNGTLNYLRPDGKSQVTVEYDGDKPVRVDTVLISTQHGPEVDYDTIKRDVIEHVIKPVIPAELLDSKTKYLVNPTGRFVIGGPQGDSGLTGRKIIVDTYGGYARHGGGAFSGKDPTKVDRSAAYAARYVAKNIVAAGLARKCEVQLAYAIGVARPVSVRVDTFGTGIIPEEKIESLVNKYFDLRPAGIIKTLDLRRPIYKQTAAYGHFGRTDIDLPWERTDKPKS”, which “soluble on expression in E. coli” value is on record?
Answer: not soluble

Question: With “MARLCTHTESGHYLMALDAGTGSVRAVIFDLQGKQIAVGQAEWQHLAVPDVPGSMEFDLAKNWQLACQCIRQALQKAAIPATAIAAVSACSMREGIVIYDSNGEPIWACANVDARAAHEVSELKELYDNTFEEEVYRCSGQTLALSAIPRLLWLAHHRPDIYHRASTVTMISDWMAFMLSGELAVDPSNAGTTGLLDLVTRNWKRSLLQMAGLRSDILSPVKETGTLLGHISQKAAEQCDLQAGTPVIVGGGDVQLGCLGLGVVRPAQTAVLGGTFWQQVVNLPAPVTDPNMNVRINPHVIPGMVQTESISFFTGLTMRWFRDAFCAEEKLIAERLGIDAYSLLEDMASRVPPGAYGVMPIFSDVMRFKRWYHAAPSFINLSIDPEKCNKATLFRALEENAAIVSACNLQQIAAFSGVQADSLVFAGGGSKGKLWSQILADVTGLTVHVPVVKEATALGCAIAAGVGVGVWPSLAETGEKLVRWDREHKPNPENFAVYQQAREKWQAVYQDQRALVDGGLTTSLWKAPGL” as the sequence, how does the “soluble on expression in E. coli” value read?
Answer: not soluble

Question: For “MARPANTLQSLAELNGKAPSRRQLNIQHWNTAEGARVLFVEARELPMFDLRVTFAAGSSQDGGTPGLAALTNAMLNEGVAGKDVTAIAEGFEGLGADFGNGSYRDMAVASLRSLSAKDKREPALKLFTEVAGKPTFPEDALKRIKNQMLAGFEYEKQNPGKIAGKALFGKLYGDHPYAHPSDGTAESITGISLAQLRAFHAKAYTGGNAVIALVGDLSRAEAEAIAAQVSAGLPKGPALAAPAQPADAKAGLTHIDFPSKQTHLMLAELGIDRQDPDWPALSMGNQILGGGAFGTRLMSEVREKRGLTYGVYSVFSPMQVRGPFMINLQTRAELSEGTLKLVQGILADYLKTGPTQQELDDAKRELAGSFPLSNASNASIVGQLGAIGFYNLPLTWLEDFMQQSQALTVEQVKAAMNKHLSADKLVIVTVGPKVPQKPLEHHHHHH”, which “soluble on expression in E. coli” value is on record?
Answer: not soluble

Question: With “MARSLVFIAIALIAVVSAGPGDKDQPKPDHKKGPGGFHHFFPKFFGNVSEEGKKEIGALFKNQDLTLAEVDTKIAALAEKYGVAAAYKEHKAKEATNEAEAKKKTASVISNLSAVSAKLTAIHDNKSLTRKAQREAIAALRKEHEAEVAALDFIGKRSHGFGKHHGRHGKGNGKFFGKRGGNKMERKTAAQ” as the sequence, how does the “soluble on expression in E. coli” value read?
Answer: not soluble
